± gives the uncertainty stated by the source.
B1: RanBP-type and C3HC4-type zinc finger-containing protein 1, residues 369 to 411; numbered along this chain, Q9BYM8 (parent)
chain: YHCKTPDCKGWCFFEDDVNEFTCPVCFHVNCLLCKAIHEQMNC
B2: Homeobox expressed in ES cells 1, residues 110 to 165; numbered along this chain, Q9UBX0 (parent)
chain: RPRTAFTQNQIEVLENVFRVNCYPGIDIREDLAQKLNLEEDRIQIWFQNRRAKLKR

Variants of: B1
Test: abundance fitness (aPCA) (normalised: wild type 0, dead -1); higher = more abundant; growth selection in yeast, the domain comes from the species named
Details: Homo sapiens

Variant	abundance fitness
YHCPTPDCKGWCFFEDDVNEFTCPVCFHVNCLLCKAIHEQMNC	-0.527 ± 0.072
YHCHTPDCKGWCFFEDDVNEFTCPVCFHVNCLLCKAIHEQMNC	-0.174 ± 0.067
YHCETPDCKGWCFFEDDVNEFTCPVCFHVNCLLCKAIHEQMNC	-0.359 ± 0.064
YHCNTPDCKGWCFFEDDVNEFTCPVCFHVNCLLCKAIHEQMNC	-0.134 ± 0.092
YHCWTPDCKGWCFFEDDVNEFTCPVCFHVNCLLCKAIHEQMNC	-0.083 ± 0.065
YHCVTPDCKGWCFFEDDVNEFTCPVCFHVNCLLCKAIHEQMNC	0.051 ± 0.045
YHCRTPDCKGWCFFEDDVNEFTCPVCFHVNCLLCKAIHEQMNC	0.021 ± 0.041
YHCCTPDCKGWCFFEDDVNEFTCPVCFHVNCLLCKAIHEQMNC	-0.201 ± 0.051
YHCFTPDCKGWCFFEDDVNEFTCPVCFHVNCLLCKAIHEQMNC	0.028 ± 0.09
YHCITPDCKGWCFFEDDVNEFTCPVCFHVNCLLCKAIHEQMNC	-0.206 ± 0.14
YHCSTPDCKGWCFFEDDVNEFTCPVCFHVNCLLCKAIHEQMNC	-0.14 ± 0.055
YHCMTPDCKGWCFFEDDVNEFTCPVCFHVNCLLCKAIHEQMNC	0.201 ± 0.062
YHCDTPDCKGWCFFEDDVNEFTCPVCFHVNCLLCKAIHEQMNC	-0.504 ± 0.11
YHCGTPDCKGWCFFEDDVNEFTCPVCFHVNCLLCKAIHEQMNC	-0.222 ± 0.038
YHCLTPDCKGWCFFEDDVNEFTCPVCFHVNCLLCKAIHEQMNC	0.124 ± 0.044
YHCATPDCKGWCFFEDDVNEFTCPVCFHVNCLLCKAIHEQMNC	0.012 ± 0.041
YDCKTPDCKGWCFFEDDVNEFTCPVCFHVNCLLCKAIHEQMNC	-0.275 ± 0.11
YKCKTPDCKGWCFFEDDVNEFTCPVCFHVNCLLCKAIHEQMNC	0.095 ± 0.062
YACKTPDCKGWCFFEDDVNEFTCPVCFHVNCLLCKAIHEQMNC	-0.285 ± 0.044
YECKTPDCKGWCFFEDDVNEFTCPVCFHVNCLLCKAIHEQMNC	-0.554 ± 0.07
YNCKTPDCKGWCFFEDDVNEFTCPVCFHVNCLLCKAIHEQMNC	0.104 ± 0.1
YQCKTPDCKGWCFFEDDVNEFTCPVCFHVNCLLCKAIHEQMNC	0.091 ± 0.053

Variant	abundance fitness
YVCKTPDCKGWCFFEDDVNEFTCPVCFHVNCLLCKAIHEQMNC	-0.739 ± 0.071
YCCKTPDCKGWCFFEDDVNEFTCPVCFHVNCLLCKAIHEQMNC	-0.103 ± 0.069
YMCKTPDCKGWCFFEDDVNEFTCPVCFHVNCLLCKAIHEQMNC	-0.031 ± 0.059
YYCKTPDCKGWCFFEDDVNEFTCPVCFHVNCLLCKAIHEQMNC	0.105 ± 0.07
YICKTPDCKGWCFFEDDVNEFTCPVCFHVNCLLCKAIHEQMNC	-0.265 ± 0.14
YFCKTPDCKGWCFFEDDVNEFTCPVCFHVNCLLCKAIHEQMNC	0.029 ± 0.074
YTCKTPDCKGWCFFEDDVNEFTCPVCFHVNCLLCKAIHEQMNC	-0.149 ± 0.059
YSCKTPDCKGWCFFEDDVNEFTCPVCFHVNCLLCKAIHEQMNC	-0.072 ± 0.05
YRCKTPDCKGWCFFEDDVNEFTCPVCFHVNCLLCKAIHEQMNC	0.035 ± 0.041
YLCKTPDCKGWCFFEDDVNEFTCPVCFHVNCLLCKAIHEQMNC	-0.233 ± 0.056
YGCKTPDCKGWCFFEDDVNEFTCPVCFHVNCLLCKAIHEQMNC	-0.568 ± 0.051
WHCKTPDCKGWCFFEDDVNEFTCPVCFHVNCLLCKAIHEQMNC	-0.437 ± 0.074
MHCKTPDCKGWCFFEDDVNEFTCPVCFHVNCLLCKAIHEQMNC	0.028 ± 0.099
NHCKTPDCKGWCFFEDDVNEFTCPVCFHVNCLLCKAIHEQMNC	-0.408 ± 0.069
IHCKTPDCKGWCFFEDDVNEFTCPVCFHVNCLLCKAIHEQMNC	0.051 ± 0.2
THCKTPDCKGWCFFEDDVNEFTCPVCFHVNCLLCKAIHEQMNC	-0.24 ± 0.06
GHCKTPDCKGWCFFEDDVNEFTCPVCFHVNCLLCKAIHEQMNC	-0.331 ± 0.049
VHCKTPDCKGWCFFEDDVNEFTCPVCFHVNCLLCKAIHEQMNC	-0.265 ± 0.06
DHCKTPDCKGWCFFEDDVNEFTCPVCFHVNCLLCKAIHEQMNC	0.004 ± 0.33
CHCKTPDCKGWCFFEDDVNEFTCPVCFHVNCLLCKAIHEQMNC	-0.509 ± 0.11
FHCKTPDCKGWCFFEDDVNEFTCPVCFHVNCLLCKAIHEQMNC	-0.282 ± 0.2
LHCKTPDCKGWCFFEDDVNEFTCPVCFHVNCLLCKAIHEQMNC	-0.453 ± 0.14

Variant	abundance fitness
SHCKTPDCKGWCFFEDDVNEFTCPVCFHVNCLLCKAIHEQMNC	-0.409 ± 0.085
KHCKTPDCKGWCFFEDDVNEFTCPVCFHVNCLLCKAIHEQMNC	-0.336 ± 0.095
HHCKTPDCKGWCFFEDDVNEFTCPVCFHVNCLLCKAIHEQMNC	-0.256 ± 0.12
AHCKTPDCKGWCFFEDDVNEFTCPVCFHVNCLLCKAIHEQMNC	-0.18 ± 0.093
YHRKTPDCKGWCFFEDDVNEFTCPVCFHVNCLLCKAIHEQMNC	-0.906 ± 0.051
YHPKTPDCKGWCFFEDDVNEFTCPVCFHVNCLLCKAIHEQMNC	-1.13 ± 0.12
YHSKTPDCKGWCFFEDDVNEFTCPVCFHVNCLLCKAIHEQMNC	-0.831 ± 0.082
YHIKTPDCKGWCFFEDDVNEFTCPVCFHVNCLLCKAIHEQMNC	-0.593 ± 0.14
YHLKTPDCKGWCFFEDDVNEFTCPVCFHVNCLLCKAIHEQMNC	-0.884 ± 0.11
YHVKTPDCKGWCFFEDDVNEFTCPVCFHVNCLLCKAIHEQMNC	-1.32 ± 0.11
YHQKTPDCKGWCFFEDDVNEFTCPVCFHVNCLLCKAIHEQMNC	-0.886 ± 0.12
YHFKTPDCKGWCFFEDDVNEFTCPVCFHVNCLLCKAIHEQMNC	-1.12 ± 0.23
YHKKTPDCKGWCFFEDDVNEFTCPVCFHVNCLLCKAIHEQMNC	-0.771 ± 0.071
YHEKTPDCKGWCFFEDDVNEFTCPVCFHVNCLLCKAIHEQMNC	-0.984 ± 0.16
YHMKTPDCKGWCFFEDDVNEFTCPVCFHVNCLLCKAIHEQMNC	-0.978 ± 0.12
YHDKTPDCKGWCFFEDDVNEFTCPVCFHVNCLLCKAIHEQMNC	-0.969 ± 0.1
YHNKTPDCKGWCFFEDDVNEFTCPVCFHVNCLLCKAIHEQMNC	-0.666 ± 0.14
YHWKTPDCKGWCFFEDDVNEFTCPVCFHVNCLLCKAIHEQMNC	-0.879 ± 0.06
YHGKTPDCKGWCFFEDDVNEFTCPVCFHVNCLLCKAIHEQMNC	-0.826 ± 0.044
YHTKTPDCKGWCFFEDDVNEFTCPVCFHVNCLLCKAIHEQMNC	-0.937 ± 0.098

Variants of: B2
Test: as above
Details: Homo sapiens

Variant	abundance fitness
F47E	-0.942 ± 0.32
F47C	-0.851 ± 0.28
F47R	-0.952 ± 0.2
F47Y	-0.455 ± 0.49
F47W	-0.908 ± 0.44
F47S	-0.724 ± 0.37
F47D	-0.576 ± 0.46
F47V	-0.841 ± 0.25
F47L	-0.842 ± 0.19
F47G	-0.855 ± 0.09
F47A	-0.698 ± 0.17
F47I	-0.449 ± 0.18
R56C	0.033 ± 0.1
R56W	0.617 ± 0.15
R56G	0.104 ± 0.25
R56V	-0.171 ± 0.27
R56D	0.686 ± 0.31
K53N	-0.284 ± 0.41
K53I	-0.156 ± 0.24
K53F	-0.326 ± 0.37
K53S	-0.017 ± 0.083
K53Y	-0.492 ± 0.15
K53V	-0.229 ± 0.19
K53G	-0.141 ± 0.079
K53P	-0.345 ± 0.29
K53W	-0.405 ± 0.16

Variant	abundance fitness
K53T	-0.115 ± 0.14
K53M	-0.075 ± 0.15
K53R	0.059 ± 0.086
K53L	-0.067 ± 0.071
K53D	-0.067 ± 0.26
K53E	0.176 ± 0.15
K53Q	0.267 ± 0.13
K53C	-0.459 ± 0.18
R51Y	-0.782 ± 0.16
R51C	-0.368 ± 0.12
R51I	-0.336 ± 0.31
R51L	-0.752 ± 0.24
R51T	-0.301 ± 0.23
R51Q	-0.43 ± 0.3
R51E	-0.632 ± 0.12
R51K	-0.577 ± 0.27
R51S	-0.491 ± 0.27
R51M	-0.109 ± 0.12
R51V	-0.243 ± 0.079
R51D	0.168 ± 0.45
R51A	-0.424 ± 0.17
R51N	-0.131 ± 0.19
R51G	-0.671 ± 0.18
L54Q	0.01 ± 0.16
L54W	-0.205 ± 0.084
L54P	0.222 ± 0.19

Variant	abundance fitness
L54V	-0.082 ± 0.13
L54F	0.312 ± 0.17
L54I	0.074 ± 0.08
L54A	-0.34 ± 0.12
L54C	-0.031 ± 0.11
L54G	0.319 ± 0.1
L54K	-0.119 ± 0.14
L54M	-0.195 ± 0.22
L54E	0.203 ± 0.085
L54R	-0.596 ± 0.079
L54D	-0.071 ± 0.13
N49F	-0.604 ± 0.41
N49E	0.43 ± 0.12
N49S	-0.198 ± 0.16
N49R	-0.291 ± 0.14
N49T	-0.019 ± 0.11
N49I	-0.46 ± 0.23
N49Q	-0.124 ± 0.37
N49D	0.044 ± 0.11
N49C	-0.425 ± 0.088
N49H	-0.232 ± 0.31
N49G	-0.527 ± 0.093
N49W	-0.471 ± 0.11
N49M	0.052 ± 0.2
N49P	-0.648 ± 0.34
N49L	-0.19 ± 0.1

Variant	abundance fitness
N49K	-0.102 ± 0.23
N49A	0.217 ± 0.13
Q48M	-0.073 ± 0.097
Q48T	0.299 ± 0.14
Q48H	-0.287 ± 0.33
Q48C	-0.466 ± 0.17
Q48A	0.233 ± 0.13
Q48E	-0.098 ± 0.12
Q48I	-0.23 ± 0.22
Q48R	0.142 ± 0.12
Q48N	-0.307 ± 0.34
Q48P	-0.658 ± 0.5
Q48K	0.114 ± 0.17
Q48S	-0.001 ± 0.14
Q48G	-0.461 ± 0.092
Q48V	-0.026 ± 0.12
K55R	-0.369 ± 0.089
K55V	-0.672 ± 0.37
K55P	-0.042 ± 0.19
K55A	-0.451 ± 0.24
K55N	-0.068 ± 0.31
K55L	-0.583 ± 0.23
K55H	-0.27 ± 0.12
K55I	0.143 ± 0.15
K55E	0.334 ± 0.17
K55Y	-0.479 ± 0.35

Variant	abundance fitness
K55D	-0.419 ± 0.37
K55G	-0.302 ± 0.21
K55F	-0.349 ± 0.46
K55M	-0.181 ± 0.078
K55S	-0.399 ± 0.12
W46G	-1.07 ± 0.18
W46S	-0.595 ± 0.26
W46A	-0.693 ± 0.1
W46D	-0.428 ± 0.4
W46P	-0.361 ± 0.26
W46H	-0.58 ± 0.36
W46K	-0.925 ± 0.44
W46Y	0.48 ± 0.26
W46T	-0.721 ± 0.36
W46V	-0.928 ± 0.29
W46E	-0.751 ± 0.31
W46C	-1.15 ± 0.25
W46F	-0.547 ± 0.33
W46L	-0.895 ± 0.29
A52C	-0.143 ± 0.17
A52L	-0.499 ± 0.25
A52S	-0.104 ± 0.19
A52D	-0.044 ± 0.22
A52K	-0.064 ± 0.086
A52N	-0.03 ± 0.17
A52E	0.059 ± 0.19

Variant	abundance fitness
A52H	-0.05 ± 0.21
A52M	-0.269 ± 0.26
A52W	-0.505 ± 0.15
A52G	-0.205 ± 0.12
A52F	-0.361 ± 0.15
A52R	-0.194 ± 0.14
A52T	0.172 ± 0.13
A52V	-0.348 ± 0.076
I45Y	0.019 ± 0.26
R50V	-0.727 ± 0.21
R50L	-0.818 ± 0.38
R50N	-0.378 ± 0.3
R50Q	0.153 ± 0.2
R50M	-0.38 ± 0.26
R50E	0.178 ± 0.071
R50G	-0.782 ± 0.13
R50S	-0.666 ± 0.22
R50P	-0.954 ± 0.41
R50T	-0.236 ± 0.24
R50H	-0.242 ± 0.34
R50K	-0.39 ± 0.34
R50A	-0.206 ± 0.083
R50C	-0.614 ± 0.3
R50D	-0.443 ± 0.22
